# Test results as given in patent publication US20210093714A1, “Combination and method for inhibiting the cancer cells” (NATIONAL TAIWAN UNIVERSITY, priority 2013, published 2021).
# B1: Connective tissue growth factor (CCN2), wild-type full length (ligand, human, UniProt P29279 27-349, looked up)
# chain: QNCSGPCRCPDEPAPRCPAGVSLVLDGCGCCRVCAKQLGELCTERDPCDPHKGLFCHFGSPANRKIGVCTAKDGAPCIFGGTVYRSGESFQSSCKYQCTCLDGAVGCMPLCSMDVRLPSPDCPFPRRVKLPGKCCEEWVCDEPKDQTVVGPALAAYRLEDTFGPDPTMIRANCLVQTTEWSACSKTCGMGISTRVTNDNASCRLEKQSRLCMVRPCEADLEENIKKGKKCIRTPKISKPIKFELSGCTSMKTYRAKFCGVCTDGRCCTPHRTTTLPVEFKCPDGEVMKKNMMFIKTCACHYNCPGDNDIFESLYYRKMYGDMA
# notes: also called Recombinant CCN2; exogenous CCN2
# Key:
# EGFR = assay: Immunoprecipitation and in vitro binding assay of CCN2 and EGFR; parameters: species or system human; conditions: A549; FIG. 2C
# Procedure: CCN2 transfectants were seeded overnight and incubated in serum-free media for 24 h. For immunoprecipitations, cells were lysed in an RIPA buffer (150 mM NaCl, 50 mM Tris-base, 5 mM EDTA, 1% NP-40, and 0.25% deoxycholate; pH 7.4). Protein concentrations were determined using the BCA protein assay kit (Pierce, Rockford, Ill., USA). Lysate was incubated for 2 h at 4[…] with gentle rotation with rabbit polyclonal antibodies for human EGFR, CCN2, or Src immobilized onto protein A—sepharose beads (Santa Cruz Biotechnology, Santa Cruz, Calif., USA). Beads were washed twice with an IP buffer (137 mM NaCl, 2.7 mM KCl, 1 mM MgCl2, 1 mM CaCl2, 1% NP-40, 10% glycerol, 1 mg/ml bovine serum albumin, and 20 mM Tris; pH 8.0), boiled in a sodium dodecyl sulfate-polyacrylamide gel electrophoresis (SDS-PAGE) sample buffer, and centrifuged (12000×g, 4° C. for 15 min).
# The recombinant proteins rCCN2 (BioVendor Com. Heidelberg, Germany), rEGFR, and rEGF (R&D Techne Corporation) ([…]) were added in binding buffer (50 mM sodium phosphate, pH 7.5, 500 mM NaCl, and I% Nonidet P-40) and incubated with gentle rotation at 4° C. for 2 h. Thereafter, crosslinks were reversed by boiling in an SDS-PAGE sample buffer (containing 0.1M dithiothreitol (DTT)) before loading on SDS-PAGE gels for immunoblotting analysis. […]
# EGFR/c-Cbl complex = molecular target: T1, EGFR/c-Cbl complex (Homo sapiens, UniProt P00533); assay: Immunoprecipitation/western blot of EGFR/c-Cbl complex formation; assay type: cell-based; conditions: CL1-5 with MG132; 0 to 60 minutes; FIG. 4D
# T1 construct: expressed in transfected cells; host or cells: CL1-5 (EGFR endogenous; HA-c-Cbl transiently transfected)
# Procedure: (§1) Proteins ([…]) were separated by SDS-PAGE and transferred to a polyvinylidene difluoride membrane (Immobilon-P membrane; Millipore) by electrotransfer. The blot was blocked in a solution of 5% skim milk and 0.1% Tween 20 in PBS. Thereafter, membrane-bound proteins were probed with the following primary antibodies: CCN2, DAPK, phosphorylated ERK, ERK-1, phosphorylated Akt, Akt, TrkA, phosphorylated-Src, Src, b-actin, a-tubulin (Santa Cruz Biotechnology), p-EGFR, and EGFR (Cell Signaling Technology, Danvers, MA, USA). The membrane was washed and then incubated with HRP-conjugated secondary antibodies for 30 min. Enhanced chemiluminescence reagents (Amersham Pharmacia Biotech, Piscataway, N.J., USA) were employed to depict the protein bands on membranes. The light was captured on Kodak X-Omat Blue autoradiography film (PerkinElmer Life Sciences, Boston, Mass., USA).
# CCN2 transfectants were seeded overnight and incubated in serum-free media for 24 h. For immunoprecipitations, cells were lysed in an RIPA buffer (150 mM NaCl, 50 mM Tris-base, 5 mM EDTA, 1% NP-40, and 0.25% deoxycholate; pH 7.4). Protein concentrations were determined using the BCA protein assay kit (Pierce, Rockford, Ill., USA). […]
# [1] = system: lung adenocarcinoma cell line, CL1-5; assay: Anoikis assay (DNA fragmentation); assay type: cell-based, human; conditions: FIG. 5A
# Excerpt: This embodiment focuses on whether CCN2 can induce anoikis in lung adenocarcinoma cells in vitro and in vivo. At first, CCN2 induces anoikis which is induced by CCN2 in lung adenocarcinoma cells in vitro was observed by anoikis assay, the results shown in FIGS. 5A to 5C.
# [2] = system: lung adenocarcinoma cell line, CL1-5; assay: In vivo anoikis, high-frequency ultrasonic imaging, s.c. CL1-5; conditions: nude mice, rCCN2 i.p. 1 mg/kg per day, FIG. 5F
# Excerpt: (§2) Mice were anesthetized with isoflurane inhalation, and biofluorescence images were photographed with a CCD camera (IVIS; Xenogen Corporation, Caliper Life Sciences, Hopkinton, Mass., USA) at specific times. Imaging times ranged from 1 to 60 s, depending on the amount of fluorescence activity. Biofluorescence from the region of interest (ROI) was defined manually, and the data were expressed as photon flux (photons/s/cm^2/steradian). Background photon flux was defined using an ROI from a mouse that was not given an […]. injection of cancer cells. All biofluorescence data were collected and analyzed using IVIS. Celltracker dye was purchased from Molecular Probes, Invitrogen Corporation.
# Next, the effect of rCCN2 on anoikis in the lung adenocarcinoma cell line, CL1-5, (in vivo) was observed by high-frequency ultrasonic imaging, the results shown in FIG. 5F(top right indicated as the amplification view of the yellow squares). In this embodiment, the lung adenocarcinoma cell line, CL1-5, was injected into the s.c. region of nude mice and the mice was treated i.p. either with rCCN2 (1 mg/kg per day) or a control solution (citrate buffer), and anoikis in the lung adenocarcinoma cell line, CL1-5,(in vivo) was observed by high-frequency ultrasonic imaging.
# [3] = system: lung adenocarcinoma cell line, CL1-5; assay: In vivo metastasis of i.v. injected CL1-5, celltracker probe; conditions: nude mice, i.v. CL1-5; CCN2 1 mg/kg per day; FIG. 5G
# Excerpt: as §2
# Cells were washed and resuspended in PBS. […] The mice were injected i.v. with cells so that we could measure the metastatic potential and perform biofluorescence imaging. The mice were killed after 8 weeks, and all of their organs were examined for metastasis formation. The lungs were removed and fixed in 10% formalin fixative. The number of lung-tumor colonies was counted under a dissecting microscope. […]
# wild-type EGFR = assay: Western blot of EGFR expression, H1299 wild-type EGFR; assay type: cell-based, human; conditions: H1299 lung adenocarcinoma cell lines (wild-type EGFR); 0 minutes to 4 hours; FIG. 7
# Procedure: as §1
# (§3) First, the effect of rCCN2 on the wild-type EGFR […] lung adenocarcinoma cell line, the mutated-type EGFR H1299 lung adenocarcinoma cell line, and the mutated-type EGFR H1975 lung adenocarcinoma cell line was observed by western blot analysis, the results shown in FIG. 7(Cell lysates of H1299 transfectants or H1975 cells were immunoblotted with anti-EGFR).
# [4] = system: mutated-type EGFR (L858R); assay: Western blot of EGFR expression, H1299 mutated-type EGFR; assay type: cell-based, human; conditions: H1299 (single mutation point, L858R); 0 minutes to 4 hours; FIG. 7
# Procedure: as §1, §3
# [5] = system: CL1-5 lung adenocarcinoma cell lines; assay: MTT Assay, cell survival of CL1-5, rCCN2 and cetuximab; assay type: cell-based, human; conditions: attached CL1-5; rCCN2 alone 0 to 200 ng/mL; FIG. 8F
molecule,measurement,setting,value
B1,physical association between CCN2 and EGFR,EGFR,there is a physically association
same,formation of EGFR/c-Cbl complex,EGFR/c-Cbl complex,gradually increase the formation of EGFR/c-Cbl complex
same,DNA fragmentation,"[1]; attached CL1-5, rCCN2 0, 20, 100, 200 ng/mL",no obvious difference
same,DNA fragmentation,"[1]; suspended CL1-5, rCCN2 with higher concentration",increased
same,anoikis in vivo,[2],clearly appeared anoikis
same,celltracker signals in lungs,[3],much weaker
same,number of metastatic lung nodules,[3],significantly reduced
same,expression of EGFR,wild-type EGFR,inhibit the expression of EGFR more significantly
same,expression of EGFR,[4],inhibit the expression of EGFR more significantly
same,cell survival,[5],not significantly reduced
